Results reported in patent publication US20060116325A1, “Methods and compositions for inhibiting hiv-coreceptor interactions” (priority 2001, published 2006).

Test system: HIV-1JRFL
Test: HIV-1JRFL infection of monocyte-derived macrophages, p24 ELISA
Format: cell-based
Settings: peptide 1 hr before virus, p24 after 72 hr; FIG. 3
Method: Monocyte-derived macrophages were treated with the designated concentrations of the indicated peptide for a period of 1 hr prior to addition of HIV-1JRFL. After 2 hr, cells were washed, and viral replication was determined after 72 hr by p24 analysis. Results are representative of 4 independent experiments.
PBMCs were obtained from whole blood of normal donors and isolated by Ficoll-Paque Plus (Pharmacia Biotech, Piscataway, N.J.) density gradient centrifugation, and plated at a cell density of 2×10^6 cells/ml. Monocyte-derived macrophages (MDM) were generated from adherent human peripheral blood mononuclear cells by culture for 7 days with M-CSF (100 ng/ml). […] After 2 hr, cells were washed, and cultured for additional 48-72 hr, followed by analysis of HIV replication as determined by quantification of accumulated p24 in the supernatant. The production of p24 was determined by conventional sandwich ELISA, using ELISA plates pre-coated with capture anti-p24 antibodies provided by the AIDS Vaccine Program (SAIC Frederick, NCI-FCRDC, Frederick, Md.). The captured p24 antigen was detected using rabbit anti-HIV-1 anti-p24 antibody, and a secondary goat anti-rabbit IgG (peroxidase-labeled) antibody. The captured p24 protein was detected using a 3,3′,5,5′-tetramethylbenzidine and hydrogen peroxide detection system (KPL Laboratories, Gaithersburg, Md.). […]

B1: macrophage inflammatory protein-1β (protein)
chain: APMGSDPPTACCFSYTARKLPRNFVVDYYETSSLCSQPAVVFQTKRSKQVCADPSESWVQEYVYDLELN
For B1, the “inhibition of HIV-1JRFL infection of monocyte-derived macrophages (p24)” value was “comparable inhibitory activities”.
